According to publication PMC10130750, “The motor domain of the kinesin Kip2 promotes microtubule polymerization at microtubule tips” (The Journal of Cell Biology, 2023):
One block for each binder: values may come before it.

B2: coiled-coil domain of Bik1 (Bik1-CC, residues 182–396) (domain or fragment, S. cerevisiae, UniProt P11709 182-396, looked up)
chain: DNGHMNDLNSSEVTIELREAQLTIEKLQRKQLHYKRLLDDQRMVLEEVQPTFDRYEATIQEREKEIDHLKQQLELERRQQAKQKQFFDAENEQLLAVVSQLHEEIKENEERNLSHNQPTGANEDVELLKKQLEQLRNIEDQFELHKTKWAKEREQLKMHNDSLSKEYQNLSKELFLTKPQDSSSEEVASLTKKLEEANEKIKQLEQAQAQTAVES
notes: Bik1 coiled-coil domain, S. cerevisiae CLIP-170 ortholog, residues 182–396; Dimer by SEC-MALS (51 kD); source: recombinantly expressed and purified (E. coli BL21 (DE3), IMAC, SEC)

Assays:
[1] = target: B2; assay: SEC-MALS; 25°C; 20 mM Tris-HCl pH 7.5, 150 mM NaCl, 1 mM DTT; 4–8 mg/ml of each protein applied, single proteins and mixtures (Bik1-CC, Kip2-NMD, Kip2-NMD-ΔT); settings: both partners purified
[2] = target: the molecule itself; assay: as above
[3] = target: T1, tubulin (free αβ-tubulin heterodimer) ( (bovine brain tubulin used …, UniProt Q6B856 1-445)); assay: SEC-MALS; equimolar mixture of tubulin and Kip2-MD in its apo state; 25°C; settings: both partners purified
[4] = target: tubulin (free αβ-tubulin heterodimer) (not stated (bovine brain tubulin used for pelleting, pig brain tubulin for TIRF)) (UniProt Q6B856)
[5] = target: T1, tubulin (free αβ-tubulin heterodimer); assay: SEC-MALS; 25°C; 20 mM Hepes pH 7.4, 200 mM NaCl, 1 mM DTT; 4–8 mg/ml applied; MBP-Kip2(71-560)-mCherry or its P1^− mutant alone and mixed with tubulin; settings: both partners purified
[6] = target: the molecule itself; assay: as above

Chain of tubulin (free αβ-tubulin heterodimer) (not stated (bovine brain tubulin used for pelleting, pig brain tubulin for TIRF)) (Q6B856 whole entry, looked up, one chain of several): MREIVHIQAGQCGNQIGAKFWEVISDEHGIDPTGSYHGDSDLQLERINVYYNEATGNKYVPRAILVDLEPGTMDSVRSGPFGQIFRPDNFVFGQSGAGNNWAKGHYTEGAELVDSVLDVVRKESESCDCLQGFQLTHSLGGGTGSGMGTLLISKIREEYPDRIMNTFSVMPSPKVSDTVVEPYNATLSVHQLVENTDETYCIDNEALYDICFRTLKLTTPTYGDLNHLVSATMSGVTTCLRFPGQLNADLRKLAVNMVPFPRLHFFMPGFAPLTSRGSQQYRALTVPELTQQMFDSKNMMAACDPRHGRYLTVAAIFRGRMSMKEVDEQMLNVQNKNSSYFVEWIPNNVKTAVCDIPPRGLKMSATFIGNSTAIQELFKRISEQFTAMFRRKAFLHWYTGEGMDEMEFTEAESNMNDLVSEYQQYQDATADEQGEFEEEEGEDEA

- stoichiometry N [3]: 1
B4: Kip2 motor domain (Kip2-MD, residues 100–503) (domain or fragment, S. cerevisiae, UniProt P28743 100-503, looked up)
chain: TGSITVTIRPKPRSVGTSRDHVGLKSPRYSQPRSNSHHGSNTFVRDPWFITNDKTIVHEEIGEFKFDHVFASHCTNLEVYERTSKPMIDKLLMGFNATIFAYGMTGSGKTFTMSGNEQELGLIPLSVSYLFTNIMEQSMNGDKKFDVIISYLEIYNERIYDLLESGLEESGSRISTPSRLYMSKSNSNGLGVELKIRDDSQYGVKVIGLTERRCESSEELLRWIAVGDKSRKIGETDYNARSSRSHAIVLIRLTSTNVKNGTSRSSTLSLCDLAGSERATGQQERRKEGSFINKSLLALGTVISKLSADKMNSVGSNIPSPSASGSSSSSGNATNNGTSPSNHIPYRDSKLTRLLQPALSGDSIVTTICTVDTRNDAAAETMNTLRFASRAKNVALHVSKKSII
notes: Kip2 motor domain, S. cerevisiae, residues 100–503; Used in its apo state; The methods tell cleavage of the His tag only for Kip2-NMD and Kip2-NMD-ΔT; also called apo Kip2-MD; source: E. coli BL21 (DE3), purified (IMAC, SEC)

- average speed of microtubule growth in dynamic microtubule assay (porcine tubulin), 2 nM Kip2-WT, fold increase over no addition [4]: > 13 fold
- frequency of catastrophe in dynamic microtubule assay (porcine tubulin), 2 nM Kip2-WT, fold reduction against no addition [4]: 19 fold
- length of freshly polymerized microtubules in dynamic microtubule assay (7 µM porcine tubulin, ATP), 2 nM Kip2-WT, fold over no addition [4]: 5 fold
B5: MBP-Kip2(1-560)-RFP (domain or fragment)
chain: MIQKMSPSLRRPSTRSSSGSSNIPQSPSVRSTSSFSNLTRNSIRSTSNSGSQSISASSTRSNSPLRSVSAKSDPFLHPGRIRIRRSDSINNNSRKNDTYTGSITVTIRPKPRSVGTSRDHVGLKSPRYSQPRSNSHHGSNTFVRDPWFITNDKTIVHEEIGEFKFDHVFASHCTNLEVYERTSKPMIDKLLMGFNATIFAYGMTGSGKTFTMSGNEQELGLIPLSVSYLFTNIMEQSMNGDKKFDVIISYLEIYNERIYDLLESGLEESGSRISTPSRLYMSKSNSNGLGVELKIRDDSQYGVKVIGLTERRCESSEELLRWIAVGDKSRKIGETDYNARSSRSHAIVLIRLTSTNVKNGTSRSSTLSLCDLAGSERATGQQERRKEGSFINKSLLALGTVISKLSADKMNSVGSNIPSPSASGSSSSSGNATNNGTSPSNHIPYRDSKLTRLLQPALSGDSIVTTICTVDTRNDAAAETMNTLRFASRAKNVALHVSKKSIISNGNNDGDKDRTIELLRRQLEEQRRMISELKNRSNIGEPLTKSSNESTYKDIKATGN

- stoichiometry N [5]: 1 MBP-Kip2-MD-mCherry dimer per tubulin dimer
B7: MBP-Kip2(71-560)-mCherry (domain or fragment, S. cerevisiae, UniProt P28743 71-560, looked up)
chain: KSDPFLHPGRIRIRRSDSINNNSRKNDTYTGSITVTIRPKPRSVGTSRDHVGLKSPRYSQPRSNSHHGSNTFVRDPWFITNDKTIVHEEIGEFKFDHVFASHCTNLEVYERTSKPMIDKLLMGFNATIFAYGMTGSGKTFTMSGNEQELGLIPLSVSYLFTNIMEQSMNGDKKFDVIISYLEIYNERIYDLLESGLEESGSRISTPSRLYMSKSNSNGLGVELKIRDDSQYGVKVIGLTERRCESSEELLRWIAVGDKSRKIGETDYNARSSRSHAIVLIRLTSTNVKNGTSRSSTLSLCDLAGSERATGQQERRKEGSFINKSLLALGTVISKLSADKMNSVGSNIPSPSASGSSSSSGNATNNGTSPSNHIPYRDSKLTRLLQPALSGDSIVTTICTVDTRNDAAAETMNTLRFASRAKNVALHVSKKSIISNGNNDGDKDRTIELLRRQLEEQRRMISELKNRSNIGEPLTKSSNESTYKDIKATGN
notes: Kip2 motor domain with a first helix predicted to form part of the coiled coil, S. cerevisiae, residues 71–560; Mixed monomers and dimers by SEC-MALS (185 kD; monomer calculated 125.8 kD); also called MBP-Kip2-MD-mCherry; MBP-Kip2-MD; not shown: MBP, N-terminal, kept; mCherry, C-terminal, kept
- stoichiometry N [6]: 2

The next lines start with the binder.

B1: Kip2 non-motor domain (Kip2-NMD, residues 504–706) (domain or fragment, S. cerevisiae, UniProt P28743 504-706, looked up)
chain: SNGNNDGDKDRTIELLRRQLEEQRRMISELKNRSNIGEPLTKSSNESTYKDIKATGNDGDPNLALMRAENRVLKYKLENCEKLLDKDVVDLQDSEIMEIVEMLPFEVGTLLETKFQGLESQIRQYRKYTQKLEDKIMALEKSGHTAMSLTGCDGTEVIELQKMLERKDKMIEALQSAKRLRDRALKPLINTQQSPHPVVDNDK
notes: Kip2 non-motor domain (coiled coil and C-terminal tail), S. cerevisiae, residues 504–706; Dimer by SEC-MALS (45 kD); PreScission site between His tag and protein; also called NMD-Kip2; source: E. coli BL21 (DE3), purified (IMAC, SEC); not shown: His6, N-terminal, cleaved
- stoichiometry N [1]: 1 Kip2-NMD dimer per Bik1-CC dimer
- stoichiometry N [2]: 2

Binder: B2
- stoichiometry N [2]: 2

B3: Kip2-NMD-ΔT (truncated non-motor domain of Kip2, residues 504–645) (domain or fragment, S. cerevisiae, UniProt P28743 504-645, looked up)
chain: SNGNNDGDKDRTIELLRRQLEEQRRMISELKNRSNIGEPLTKSSNESTYKDIKATGNDGDPNLALMRAENRVLKYKLENCEKLLDKDVVDLQDSEIMEIVEMLPFEVGTLLETKFQGLESQIRQYRKYTQKLEDKIMALEKS
notes: Kip2 non-motor domain lacking the C-terminal tail, S. cerevisiae, residues 504–645; Dimer by SEC-MALS (34 kD); also called Kip2-NMD-∆T; source: E. coli BL21 (DE3), purified (IMAC, SEC); not shown: His6, N-terminal, cleaved
- stoichiometry N [2]: 2

B6: MBP-Kip2(1-560)-P1^−-RFP (domain or fragment)
chain: MIQKMSPSLRRPSTRSSSGSSNIPQSPSVRSTSSFSNLTRNSIRSTSNSGSQSISASSTRSNSPLRSVSAKSDPFLHPGRIRIRRSDSINNNSRKNDTYTGSITVTIRPKPRSVGTSRDHVGLKSPRYSQPRSNSHHGSNTFVRDPWFITNDKTIVHEEIGEFKFDHVFASHCTNLEVYERTSKPMIDKLLMGFNATIFAYGMTGSGKTFTMSGNEQELGLIPLSVSYLFTNIMEQSMNGDKKFDVIISYLEIYNERIYDLLESGLEESGSRISTPSRLYMSKSNSNGLGVELAIADDSQYGVKVIGLTERRCESSEELLRWIAVGDKSRKIGETDYNARSSRSHAIVLIRLTSTNVKNGTSRSSTLSLCDLAGSERATGQQERRKEGSFINKSLLALGTVISKLSADKMNSVGSNIPSPSASGSSSSSGNATNNGTSPSNHIPYRDSKLTRLLQPALSGDSIVTTICTVDTRNDAAAETMNTLRFASRAKNVALHVSKKSIISNGNNDGDKDRTIELLRRQLEEQRRMISELKNRSNIGEPLTKSSNESTYKDIKATGN
- average growth speed of microtubules in dynamic microtubule assay (porcine tubulin), 2, 4 and 8 nM Kip2-P1^− (no speed-up at 2 nM), fold over no addition [4]: 2.9 fold
- effect on catastrophe frequency in dynamic microtubule assay (porcine tubulin), 2 nM Kip2-P1^−, against the wild-type protein [4]: 10 fold

B8: MBP-Kip2(71-560)-P1^−-mCherry (domain or fragment, S. cerevisiae, UniProt P28743 71-560, looked up)
chain: KSDPFLHPGRIRIRRSDSINNNSRKNDTYTGSITVTIRPKPRSVGTSRDHVGLKSPRYSQPRSNSHHGSNTFVRDPWFITNDKTIVHEEIGEFKFDHVFASHCTNLEVYERTSKPMIDKLLMGFNATIFAYGMTGSGKTFTMSGNEQELGLIPLSVSYLFTNIMEQSMNGDKKFDVIISYLEIYNERIYDLLESGLEESGSRISTPSRLYMSKSNSNGLGVELAIADDSQYGVKVIGLTERRCESSEELLRWIAVGDKSRKIGETDYNARSSRSHAIVLIRLTSTNVKNGTSRSSTLSLCDLAGSERATGQQERRKEGSFINKSLLALGTVISKLSADKMNSVGSNIPSPSASGSSSSSGNATNNGTSPSNHIPYRDSKLTRLLQPALSGDSIVTTICTVDTRNDAAAETMNTLRFASRAKNVALHVSKKSIISNGNNDGDKDRTIELLRRQLEEQRRMISELKNRSNIGEPLTKSSNESTYKDIKATGN
notes: Kip2 motor domain with a first helix of the coiled coil, S. cerevisiae, residues 71–560, patch 1 (Lys294, Arg296) substituted with alanines; Mixed monomers and dimers by SEC-MALS (192 kD); also called MBP-Kip2-MD-P1^−-mCherry; MBP-Kip2-MD-P1; not shown: MBP, N-terminal, kept; mCherry, C-terminal, kept
- stoichiometry N [6]: 2
